Test results published in publication PMC5289745 (Biochemistry, 2015).

Molecular target: PcrV (residues 25–294) (P. aeruginosa, UniProt G3XD49 25-294)
Test: SPR

B1: PcrG^9–76-GB1-His6 (domain or fragment)
chain: MEDTLRATVQAAELAIRDSEERGRLLAEMWQGLGLAADAGELLFQAPERELARAAEEELLAELRRMRSSGSENLYFQ
B1 was tested, and the Kd was 24 nM.

B2: PcrG-GB1-His6 (natural protein)
chain: MGDMNEYTEDTLRATVQAAELAIRDSEERGRLLAEMWQGLGLAADAGELLFQAPERELARAAEEELLAELRRMRSSQPTQGEQGTRPRRPTPMRGLLIGSENLYFQ
For B2, the Kd was 26 nM.
